We go through three substances from PMC11445239.

In general, stoichiometry N refers to the number of molecules, sites or subunits per partner or assembly.

The target in assay [1] is activated (Caspase 11-cleaved) mGSDMD-C39A-C57A-mEGFP (mouse). Briefly: single-molecule TIRF imaging with intensity-based stoichiometry analysis; preformed supported lipid bilayer (Egg PC:PI(4,5)P2 99:1 mol %) on glass incubated with 0.5, 1 or 2 nM protein (pre-cleaved WT or mutants, or full-length at 2 nM) for 1 h, washed 15 times with SLB buffer.
Assay [2] addresses activated (Caspase 11-cleaved) mGSDMD-C192A-mEGFP (mouse). Described as above.
Assay [3] has as its target activated (Caspase 11-cleaved) mGSDMD-mEGFP, mGSDMD(NTD)-mEGFP (mouse). Briefly: single-molecule TIRF imaging with intensity-based stoichiometry analysis; preformed supported lipid bilayer of 100% Egg PC (no PI(4,5)P2) incubated with 2 nM active mGSDMD-mEGFP for 1 h, washed.
The target is the same in assay [4]. Briefly: single-molecule TIRF imaging with intensity-based stoichiometry analysis; preformed supported lipid bilayer (Egg PC:PI(4,5)P2 99:1 mol %) on glass incubated with 0.5, 1 or 2 nM protein (pre-cleaved WT or mutants, or full-length at 2 nM) for 1 h, washed 15 times with SLB buffer.
The target is the same in assay [5]. Put plainly: single-molecule TIRF imaging with intensity-based stoichiometry analysis; 2 nM mGSDMD-mEGFP with 20 nM Caspase 11 incubated with LUVs (Egg PC:PI(4,5)P2 99:1 mol %) for 1 h (same pattern at 5 and 2 min and after H2O2), proteoliposomes then fused into a supported lipid bilayer on glass; SLB buffer 150 mM NaCl, 10 mM Hepes pH 7.4.

Values joined by “and” are separate entries in the source; they are usually repeats but may differ in a detail not shown here. Identical values can stand only once.

For the substance “activated (Caspase 11-cleaved) mGSDMD-C39A-C57A-mEGFP (domain or fragment)”, the stoichiometry N in assay [1] is 2 and 3 and 4. Take “activated (Caspase 11-cleaved) mGSDMD-C192A-mEGFP (domain or fragment)”: the stoichiometry N in assay [2] was 3 and 2. For the substance “activated (Caspase 11-cleaved) mGSDMD-mEGFP, mGSDMD(NTD)-mEGFP (domain or fragment)”, the stoichiometry N in assay [3] was 2; in assay [4], 5 and 6 and 9; in assay [5], 2 and 3.
